Experimental findings from article PMC7364221 are described below.

In the data set the target is T1, ClbR (Escherichia coli Nissle 1917) (UniProt Q0P7J1).
T1 sequence: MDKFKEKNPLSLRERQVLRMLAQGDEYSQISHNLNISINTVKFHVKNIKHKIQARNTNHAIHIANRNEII
The data set is described as follows: EMSA. Conditions: pH and temperature not stated. For orientation: In EMSA bound probe runs differently from free probe, usually more slowly.
For “CCAGTCACGACGTTGTAATACGACGGCCAGAGAATCCGTAATCATAGTCATAGCTGTATCCTGTGTGAAATTGTTATCCGCTCATAATTTCACACAACATACGAGCCGGACACATAGAGTGTAAAGACTGGGGTGCCTAATGAGTGAGCTGACTCACATTAATTGTGTTGCGCTCACTGCCCGCTTTCCAGTCGGGAAACTTGTCGTGCCAGCTGCATTAATGAATCGG (double strand) [lacZ promoter probe (229 bp)]”, the binding result is reported as “no binding”.
Then “GAGATTTTCCATGTAATAAGATGGACACGCGTAAGCAGTTACCGCTAACACCAAGTCAACAGGGGTTTTTATTCCATTCCTTAAAGGATAAGAAAAGGAGTAACTACCATGAGCA (double strand) [probe 8 (clbB upstream, 115 bp)]”, with “no binding”; and “TGCTCATGGTAGTTACTCCTTTTCTTATCCTTTAAGGAATGGAATAAAAACCCCTGTTGACTTGGTGTTAGCGGTAACTGCTTACGCGTGTCCATCTTATTACATGGAAAATCTCCAGAGGTATTATCCATAACCATCACCTTATTATCGGATTTATAGATTATTTAACATGATTATTCTAAATGG (double strand) [probe 12 (clbB upstream, 186 bp)]”, with “no binding”; and “TGCTCATGGTAGTTACTCCTTTTCTTATCCTTTAAGGAATGGAATAAAAACCCCTGTTGACTTGGTGTTAGCGGTAACTGCTTACGCGTGTCCATCTTATTACATGGAAAATCTCCAGAGGTATTATCCATAACCATCACCTTATTATCGGATTTATAGATTATTTAACAT (double strand) [probe 7 (clbB upstream, 171 bp)]”, with “no binding”.
Then “TGCGGATAGGTGTGCCATTTAGAATAATCATGTTAAATAATCTATAAATCCGATAATAAGGTGATGGTTATGGATAATACCTCTGGAGATTTTCCATGTAATAAGATGGACACGCGTAAGCAGTTACCGCTAACACCAAGTCAACAGGGGTTTTTATTCCATTCCTTAAAGGATAAGAAAAGGAGTAACTACCATGAGCA (double strand) [probe 11 (clbB upstream, 200 bp)]”, with “no binding”.
